Laboratory results reported in patent US20080138352A1 (INSTITUT PASTEUR, published 2008).

Target: the molecule itself
Experiment: size exclusion chromatography, Superdex 75, pH 6.0 (self-association, homodimer)

B1: recombinant Trypanosoma cruzi proline racemase TcPRACA (rTcPRACA), C-terminal His6-tagged (enzyme)
chain: GQEKLLFDQKYKIIKGEKKEKKKNQRANRREHQQKREIMRFKKSFTCIDMHTEGEAARIVTSGLPHIPGSNMAEKKAYLQENMDYLRRGIMLEPRGHDDMFGAFLFDPIEEGADLGMVFMDTGGYLNMCGHNSIAAVTAAVETGIVSVPAKATNVPVVLDTPAGLVRGTAHLQSGTESEVSNASIINVPSFLYQQDVVVVLPKPYGEVRVDIAFGGNFFAIVPAEQLGIDISVQNLSRLQEAGELLRTEINRSVKVQHPQLPHINTVDCVEIYGPPTNPEANYKNVVIFGNRQADRSPCGTGTSAKMATLYAKGQLRIGETFVYESILGSLFQGRVLGEERIPGVKVPVTKDAEEGMLVVTAEITGKAFIMGFNTMLFDPTDPFKNGFTLKQ
notes: the entry below describes its self-association into a homodimer; also called TcPA45; not shown: C-terminal six-histidine tag from pET28b(+)
**Q.** Does B1 bind?
**A.** Result: binds
